According to paper PMC5783996:

Molecular target: Botryococcus braunii light-harvesting complexes (BB LHCII), apoproteins of the trimeric fraction B3 (Botryococcus braunii (endogenous in strain CCALA778 thylakoids))
Test: sucrose density gradient ultracentrifugation; thylakoids solubilised with 1% α-DM (also OG) at room temperature, complexes separated on a sucrose density gradient; bands assigned by position (MW)

stoichiometry N: 3
Substance: Botryococcus braunii light-harvesting complexes (BB LHCII), apoproteins of the trimeric fraction B3
